Here are results for 13 substances from the supplement of paper PMC5998384.

Series [1] relates to HeLa Kyoto. In words: solubility change mitosis vs G1/S (difference of NP-40 vs SDS log2 ratios) (log2 ratio difference); higher = more soluble in mitosis.
Series [2] has as its system HeLa Kyoto. In words: solubility in G1/S (NP-40 vs SDS abundance) (log2 ratio); higher = more soluble. Particulars: cell cycle stage: G1/S.
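Throughout, for solubility change mitosis vs G1/S (difference of NP-40 vs SDS log2 ratios): synchronized HeLa Kyoto cells (double thymidine block for G1/S, nocodazole release for mitosis), protein amounts in NP-40 versus SDS lysates quantified by mass spectrometry, three biological replicates.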
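Throughout, for solubility in G1/S (NP-40 vs SDS abundance): HeLa Kyoto cells arrested at G1/S by double thymidine block, proteins quantified by TMT10plex mass spectrometry in mild NP-40 versus SDS extracts, three biological replicates.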

As to “MRRAELAGLKTMAWVPAESAVEELMPRLLPVEPCDLTEGFDPSVPPRTPQEYLRRVQIEAAQCPDVVVAQIDPKKLKRKQSVNISLSGCQPAPEGYSPTLQWQQQQVAQFSTVRQNVNKHRSHWKSQQLDSNVTMPKSEDEEGWKKFCLGEKLCADGAVGPATNESPGIDYVQIGFPPLLSIVSRMNQATVTSVLEYLSNWFGERDFTPELGRWLYALLACLEKPLLPEAHSLIRQLARRCSEVRLLVDSKDDERVPALNLLICLVSRYFDQRDLADEPS [GEMIN2]”, in series [1], the “solubility change mitosis (log2)” value was found to be 0.437. Further, in series [2], the “solubility in G1/S (log2)” value came out at 0.59.

“MERVNDASCGPSGCYTYQVSRHSTEMLHNLNQQRKNGGRFCDVLLRVGDESFPAHRAVLAACSEYFESVFSAQLGDGGAADGGPADVGGATAAPGGGAGGSRELEMHTISSKVFGDILDFAYTSRIVVRLESFPELMTAAKFLLMRSVIEICQEVIKQSNVQILVPPARADIMLFRPPGTSDLGFPLDMTNGAALAANSNGIAGSMQPEEEAARAAGAAIAGQASLPVLPGVDRLPMVAGPLSPQLLTSPFPSVASSAPPLTGKRGRGRPRKANLLDSMFGSPGGLREAGILPCGLCGKVFTDANRLRQHEAQHGVTSLQLGYIDLPPPRLGENGLPISEDPDGPRKRSRTRKQVACEICGKIFRDVYHLNRHKLSHSGEKPYSCPVCGLRFKRKDRMSYHVRSHDGSVGKPYICQSCGKGFSRPDHLNGHIKQVHTSERPHKCQTCNASFATRDRLRSHLACHEDKVPCQVCGKYLRAAYMADHLKKHSEGPSNFCSICNRGFSSASYLKVHVKTHHGVPLPQVSRHQEPILNGGAAFHCARTYGNKEGQKCSHQDPIESSDSYGDLSDASDLKTPEKQSANGSFSCDMAVPKNKMESDGEKKYPCPECGSFFRSKSYLNKHIQKVHVRALGGPLGDLGPALGSPFSPQQNMSLLESFGFQIVQSAFASSLVDPEVDQQPMGPEGK [PATZ1]”: the “solubility change mitosis (log2)” value in series [1] is 0.402. For the same substance, in series [2], the “solubility in G1/S (log2)” value is -0.643.

Take “MTPWLGLIVLLGSWSLGDWGAEACTCSPSHPQDAFCNSDIVIRAKVVGKKLVKEGPFGTLVYTIKQMKMYRGFTKMPHVQYIHTEASESLCGLKLEVNKYQYLLTGRVYDGKMYTGLCNFVERWDQLTLSQRKGLNYRYHLGCNCKIKSCYYLPCFVTSKNECLWTDMLSNFGYPGYQSKHYACIRQKGGYCSWYRGWAPPDKSIINATDP [TIMP3]”: in series [1], the “solubility change mitosis (log2)” value was -0.0173. Also, in series [2], the “solubility in G1/S (log2)” value was -0.478.

On to “MSQKQEEENPAEETGEEKQDTQEKEGILPERAEEAKLKAKYPSLGQKPGGSDFLMKRLQKGQKYFDSGDYNMAKAKMKNKQLPSAGPDKNLVTGDHIPTPQDLPQRKSSLVTSKLAGGQVE [ENSA]”, for which the “solubility change mitosis (log2)” value in series [1] was 0.654. Further, the “solubility in G1/S (log2)” value in series [2] was -0.789.

For the substance “MEGAAAREARGTETPRASAPPPAPSEPPAAPRARPRLVFRTQLAHGSPTGKIEGFTNVRELYAKIAEAFGIAPTEILFCTLNSHKVDMQKLLGGQIGLEDFIFAHVRGETKEVEVTKTEDALGLTITDNGAGYAFIKRIKEGSIINRIEAVCVGDSIEAINDHSIVGCRHYEVAKMLRELPKSQPFTLRLVQPKRAFDMIGQRSRSSKCPVEAKVTSGRETLRLRSGGAATVEEAPSEFEEEASRKVDDLLESYMGIRDPELASTMVETSKKTASAQEFARCLDSVLGEFAFPDEFVVEVWAAIGEAREACG [GIPC3]”, the “solubility change mitosis (log2)” value in series [1] is -0.0196. Further, the “solubility in G1/S (log2)” value in series [2] came to 0.0786.

For “MMGSKMASASRVVQVVKPHTPLIRFPDRRDNPKPNVSEALRSAGLPSHSSVISQHSKGSKSPDLLMYQGPPDTAEIIKTLPQKYRRKLVSQEEMEFIQRGGPE [MRPS36]”, in series [1], the “solubility change mitosis (log2)” value is 0.401. In addition, in series [2], the “solubility in G1/S (log2)” value turned out to be 0.138.

Regarding “MFNRAVSRLSRKRPPSDIHDSDGSSSSSHQSLKSTAKWAASLENLLEDPEGVKRFREFLKKEFSEENVLFWLACEDFKKMQDKTQMQEKAKEIYMTFLSSKASSQVNVEGQSRLNEKILEEPHPLMFQKLQDQIFNLMKYDSYSRFLKSDLFLKHKRTEEEEEDLPDAQTAAKRASRIYNT [RGS10]”, the “solubility change mitosis (log2)” value in series [1] was determined as 0.405. For the same substance, the “solubility in G1/S (log2)” value in series [2] is 0.563.

Turning to ARHGEF17, in series [1], the “solubility change mitosis (log2)” value was 0.166. Moreover, the “solubility in G1/S (log2)” value in series [2] was -0.434.

In the case of “MAAGSDLLDEVFFNSEVDEKVVSDLVGSLESQLAASAAHHHHLAPRTPEVRAAAAGALGNHVVSGSPAGAAGAGPAAPAEGAPGAAPEPPPAGRARPGGGGPQRPGPPSPRRPLVPAGPAPPAAKLRPPPEGSAGSCAPVPAAAAVAAGPEPAPAGPAKPAGPAALAARAGPGPGPGPGPGPGPGPGKPAGPGAAQTLNGSAALLNSHHAAAPAVSLVNNGPAALLPLPKPAAPGTVIQTPPFVGAAAPPAPAAPSPPAAPAPAAPAAAPPPPPPAPATLARPPGHPAGPPTAAPAVPPPAAAQNGGSAGAAPAPAPAAGGPAGVSGQPGPGAAAAAPAPGVKAESPKRVVQAAPPAAQTLAASGPASTAASMVIGPTMQGALPSPAAVPPPAPGTPTGLPKGAAGAVTQSLSRTPTATTSGIRATLTPTVLAPRLPQPPQNPTNIQNFQLPPGMVLVRSENGQLLMIPQQALAQMQAQAHAQPQTTMAPRPATPTSAPPVQISTVQAPGTPIIARQVTPTTIIKQVSQAQTTVQPSATLQRSPGVQPQLVLGGAAQTASLGTATAVQTGTPQRTVPGATTTSSAATETMENVKKCKNFLSTLIKLASSGKQSTETAANVKELVQNLLDGKIEAEDFTSRLYRELNSSPQPYLVPFLKRSLPALRQLTPDSAAFIQQSQQQPPPPTSQATTALTAVVLSSSVQRTAGKTAATVTSALQPPVLSLTQPTQVGVGKQGQPTPLVIQQPPKPGALIRPPQVTLTQTPMVALRQPHNRIMLTTPQQIQLNPLQPVPVVKPAVLPGTKALSAVSAQAAAAQKNKLKEPGGGSFRDDDDINDVASMAGVNLSEESARILATNSELVGTLTRSCKDETFLLQAPLQRRILEIGKKHGITELHPDVVSYVSHATQQRLQNLVEKISETAQQKNFSYKDDDRYEQASDVRAQLKFFEQLDQIEKQRKDEQEREILMRAAKSRSRQEDPEQLRLKQKAKEMQQQELAQMRQRDANLTALAAIGPRKKRKVDCPGPGSGAEGSGPGSVVPGSSGVGTPRQFTRQRITRVNLRDLIFCLENERETSHSLLLYKAFLK [TAF4]”, in series [1], the “solubility change mitosis (log2)” value stood at 0.0124. For the same substance, the “solubility in G1/S (log2)” value in series [2] was found to be 0.132.

On to “MDPRGTKRGAEKTEVAEPRNKLPRPAPSLPTDPALYSGPFPFYRRPSELGCFSLDAQRQYHGDARALRYYSPPPTNGPGPNFDLRDGYPDRYQPRDEEVQERLDHLLCWLLEHRGRLEGGPGWLAEAIVTWRGHLTKLLTTPYERQEGWQLAASRFQGTLYLSEVETPNARAQRLARPPLLRELMYMGYKFEQYMCADKPGSSPDPSGEVNTNVAFCSVLRSRLGSHPLLFSGEVDCTDPQAPSTQPPTCYVELKTSKEMHSPGQWRSFYRHKLLKWWAQSFLPGVPNVVAGFRNPDGFVSSLKTFPTMKMFEYVRNDRDGWNPSVCMNFCAAFLSFAQSTVVQDDPRLVHLFSWEPGGPVTVSVHQDAPYAFLPIWYVEAMTQDLPSPPKTPSPK [DXO]”, for which the “solubility change mitosis (log2)” value in series [1] is -0.2. The “solubility in G1/S (log2)” value in series [2] was 0.0451.

On to “MAALAEEQTEVAVKLEPEGPPTLLPPQAGDGAGEGSGGTTNNGPNGGGGNVAASSSTGGDGGTPKPTVAVSAAAPAGAAPVPAAAPDAGAPHDRQTLLAVLQFLRQSKLREAEEALRREAGLLEEAVAGSGAPGEVDSAGAEVTSALLSRVTASAPGPAAPDPPGTGASGATVVSGSASGPAAPGKVGSVAVEDQPDVSAVLSAYNQQGDPTMYEEYYSGLKHFIECSLDCHRAELSQLFYPLFVHMYLELVYNQHENEAKSFFEKFHGDQECYYQDDLRVLSSLTKKEHMKGNETMLDFRTSKFVLRISRDSYQLLKRHLQEKQNNQIWNIVQEHLYIDIFDGMPRSKQQIDAMVGSLAGEAKREANKSKVFFGLLKEPEIEVPLDDEDEEGENEEGKPKKKKPKKDSIGSKSKKQDPNAPPQNRIPLPELKDSDKLDKIMNMKETTKRVRLGPDCLPSICFYTFLNAYQGLTAVDVTDDSSLIAGGFADSTVRVWSVTPKKLRSVKQASDLSLIDKESDDVLERIMDEKTASELKILYGHSGPVYGASFSPDRNYLLSSSEDGTVRLWSLQTFTCLVGYKGHNYPVWDTQFSPYGYYFVSGGHDRVARLWATDHYQPLRIFAGHLADVNCTRFHPNSNYVATGSADRTVRLWDVLNGNCVRIFTGHKGPIHSLTFSPNGRFLATGATDGRVLLWDIGHGLMVGELKGHTDTVCSLRFSRDGEILASGSMDNTVRLWDAIKAFEDLETDDFTTATGHINLPENSQELLLGTYMTKSTPVVHLHFTRRNLVLAAGAYSPQ [TAF5]”, for which, in series [1], the “solubility change mitosis (log2)” value was found to be 0.00763. Further, the “solubility in G1/S (log2)” value in series [2] was -0.0963.

Regarding “MAEASSLGRQSPRVVSCLEHSLCPGEPGLQTTAVVSMGSGDHQFNLAEILSQNYSVRGECEEASRCPDKPKEELEKDFISQSNDMPFDELLALYGYEASDPISDRESEGGDVAPNLPDMTLDKEQIAKDLLSGEEEEETQSSADDLTPSVTSHEASDLFPNRSGSRFLADEDREPGSSASSDTEEDSLPANKCKKEIMVGPQFQADLSNLHLNRHCEKIYENEDQLLWDPSVLPEREVEEFLYRAVKRRWHEMAGPQLPEGEAVKDSEQALYELVKCNFNVEEALRRLRFNVKVIRDGLCAWSEEECRNFEHGFRVHGKNFHLIQANKVRTRSVGECVEYYYLWKKSERYDYFAQQTRLGRRKYVPSGTTDADQDLDGSDPDGPGRPRPEQDTLTGMRTDPLSVDGTAGGLDEPGVASDGLPSSEPGPCSFQQLDESPAVPLSHRPPALADPASYQPAVTAPEPDASPRLAVDFALPKELPLISSHVDLSGDPEETVAPAQVALSVTEFGLIGIGDVNPFLAAHPTCPAPGLHSEPLSHCNVMTC [MIER2]”, the “solubility change mitosis (log2)” value in series [1] was -0.304. Besides, in series [2], the “solubility in G1/S (log2)” value amounted to 0.172.

“MDGAVMEGPLFLQSQRFGTKRWRKTWAVLYPASPHGVARLEFFDHKGSSSGGGRGSSRRLDCKVIRLAECVSVAPVTVETPPEPGATAFRLDTAQRSHLLAADAPSSAAWVQTLCRNAFPKGSWTLAPTDNPPKLSALEMLENSLYSPTWEGSQFWVTVQRTEAAERCGLHGSYVLRVEAERLTLLTVGAQSQILEPLLSWPYTLLRRYGRDKVMFSFEAGRRCPSGPGTFTFQTAQGNDIFQAVETAIHRQKAQGKAGQGHDVLRADSHEGEVAEGKLPSPPGPQELLDSPPALYAEPLDSLRIAPCPSQDSLYSDPLDSTSAQAGEGVQRKKPLYWDLYEHAQQQLLKAKLTDPKEDPIYDEPEGLAPVPPQGLYDLPREPKDAWWCQARVKEEGYELPYNPATDDYAVPPPRSTKPLLAPKPQGPAFPEPGTATGSGIKSHNSALYSQVQKSGASGSWDCGLSRVGTDKTGVKSEGST [DOK1]”: in series [1], the “solubility change mitosis (log2)” value is 0.00435. The “solubility in G1/S (log2)” value in series [2] was -0.257.
